Data as given in IntAct's records for PubMed 25502805.

B1: Interleukin-1 receptor-associated kinase 4 (Homo sapiens), Q9NWZ3 (parent)
chain: MNKPITPSTYVRCLNVGLIRKLSDFIDPQEGWKKLAVAIKKPSGDDRYNQFHIRRFEALLQTGKSPTSELLFDWGTTNCTVGDLVDLLIQNEFFAPASLLLPDAVPKTANTLPSKEAITVQQKQMPFCDKDRTLMTPVQNLEQSYMPPDSSSPENKSLEVSDTRFHSFSFYELKNVTNNFDERPISVGGNKMGEGGFGVVYKGYVNNTTVAVKKLAAMVDITTEELKQQFDQEIKVMAKCQHENLVELLGFSSDGDDLCLVYVYMPNGSLLDRLSCLDGTPPLSWHMRCKIAQGAANGINFLHENHHIHRDIKSANILLDEAFTAKISDFGLARASEKFAQTVMTSRIVGTTAYMAPEALRGEITPKSDIYSFGVVLLEIITGLPAVDEHREPQLLLDIKEEIEDEEKTIEDYIDKKMNDADSTSVEAMYSVASQCLHEKKNKRPDIKKVQQLLQEMTAS
B2: Scaffold protein ILK (Homo sapiens), Q13418 (parent)
chain: MDDIFTQCREGNAVAVRLWLDNTENDLNQGDDHGFSPLHWACREGRSAVVEMLIMRGARINVMNRGDDTPLHLAASHGHRDIVQKLLQYKADINAVNEHGNVPLHYACFWGQDQVAEDLVANGALVSICNKYGEMPVDKAKAPLRELLRERAEKMGQNLNRIPYKDTFWKGTTRTRPRNGTLNKHSGIDFKQLNFLTKLNENHSGELWKGRWQGNDIVVKVLKVRDWSTRKSRDFNEECPRLRIFSHPNVLPVLGACQSPPAPHPTLITHWMPYGSLYNVLHEGTNFVVDQSQAVKFALDMARGMAFLHTLEPLIPRHALNSRSVMIDEDMTARISMADVKFSFQCPGRMYAPAWVAPEALQKKPEDTNRRSADMWSFAVLLWELVTREVPFADLSNMEIGMKVALEGLRPTIPPGISPHVCKLMKICMNEDPAKRPKFDMIVPILEKMQDK
partner: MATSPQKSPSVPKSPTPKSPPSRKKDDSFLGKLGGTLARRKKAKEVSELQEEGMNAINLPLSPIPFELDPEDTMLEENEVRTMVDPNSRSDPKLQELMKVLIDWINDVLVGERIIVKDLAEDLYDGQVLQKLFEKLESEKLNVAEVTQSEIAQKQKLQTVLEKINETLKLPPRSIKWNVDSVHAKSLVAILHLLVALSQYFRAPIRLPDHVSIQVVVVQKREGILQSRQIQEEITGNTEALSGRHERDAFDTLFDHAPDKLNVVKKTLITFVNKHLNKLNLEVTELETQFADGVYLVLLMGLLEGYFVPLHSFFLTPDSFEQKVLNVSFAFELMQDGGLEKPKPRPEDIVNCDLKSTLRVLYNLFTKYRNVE
B3: DNA mismatch repair protein Mlh1 (Homo sapiens), P40692 (parent)
chain: MSFVAGVIRRLDETVVNRIAAGEVIQRPANAIKEMIENCLDAKSTSIQVIVKEGGLKLIQIQDNGTGIRKEDLDIVCERFTTSKLQSFEDLASISTYGFRGEALASISHVAHVTITTKTADGKCAYRASYSDGKLKAPPKPCAGNQGTQITVEDLFYNIATRRKALKNPSEEYGKILEVVGRYSVHNAGISFSVKKQGETVADVRTLPNASTVDNIRSIFGNAVSRELIEIGCEDKTLAFKMNGYISNANYSVKKCIFLLFINHRLVESTSLRKAIETVYAAYLPKNTHPFLYLSLEISPQNVDVNVHPTKHEVHFLHEESILERVQQHIESKLLGSNSSRMYFTQTLLPGLAGPSGEMVKSTTSLTSSSTSGSSDKVYAHQMVRTDSREQKLDAFLQPLSKPLSSQPQAIVTEDKTDISSGRARQQDEEMLELPAPAEVAAKNQSLEGDTTKGTSEMSEKRGPTSSNPRKRHREDSDVEMVEDDSRKEMTAACTPRRRIINLTSVLSLQEEINEQGHEVLREMLHNHSFVGCVNPQWALAQHQTKLYLLNTTKLSEELFYQILIYDFANFGVLRLSEPAPLFDLAMLALDSPESGWTEEDGPKEGLAEYIVEFLKKKAEMLADYFSLEIDEEGNLIGLPLLIDNYVPPLEGLPIFILRLATEVNWDEEKECFESLSKECAMFYSIRKQYISEESTLSGQQSEVPGSIPNSWKWTVEHIVYKALRSHILPPKHFTEDGNILQLANLPDLYKVFERC
partner: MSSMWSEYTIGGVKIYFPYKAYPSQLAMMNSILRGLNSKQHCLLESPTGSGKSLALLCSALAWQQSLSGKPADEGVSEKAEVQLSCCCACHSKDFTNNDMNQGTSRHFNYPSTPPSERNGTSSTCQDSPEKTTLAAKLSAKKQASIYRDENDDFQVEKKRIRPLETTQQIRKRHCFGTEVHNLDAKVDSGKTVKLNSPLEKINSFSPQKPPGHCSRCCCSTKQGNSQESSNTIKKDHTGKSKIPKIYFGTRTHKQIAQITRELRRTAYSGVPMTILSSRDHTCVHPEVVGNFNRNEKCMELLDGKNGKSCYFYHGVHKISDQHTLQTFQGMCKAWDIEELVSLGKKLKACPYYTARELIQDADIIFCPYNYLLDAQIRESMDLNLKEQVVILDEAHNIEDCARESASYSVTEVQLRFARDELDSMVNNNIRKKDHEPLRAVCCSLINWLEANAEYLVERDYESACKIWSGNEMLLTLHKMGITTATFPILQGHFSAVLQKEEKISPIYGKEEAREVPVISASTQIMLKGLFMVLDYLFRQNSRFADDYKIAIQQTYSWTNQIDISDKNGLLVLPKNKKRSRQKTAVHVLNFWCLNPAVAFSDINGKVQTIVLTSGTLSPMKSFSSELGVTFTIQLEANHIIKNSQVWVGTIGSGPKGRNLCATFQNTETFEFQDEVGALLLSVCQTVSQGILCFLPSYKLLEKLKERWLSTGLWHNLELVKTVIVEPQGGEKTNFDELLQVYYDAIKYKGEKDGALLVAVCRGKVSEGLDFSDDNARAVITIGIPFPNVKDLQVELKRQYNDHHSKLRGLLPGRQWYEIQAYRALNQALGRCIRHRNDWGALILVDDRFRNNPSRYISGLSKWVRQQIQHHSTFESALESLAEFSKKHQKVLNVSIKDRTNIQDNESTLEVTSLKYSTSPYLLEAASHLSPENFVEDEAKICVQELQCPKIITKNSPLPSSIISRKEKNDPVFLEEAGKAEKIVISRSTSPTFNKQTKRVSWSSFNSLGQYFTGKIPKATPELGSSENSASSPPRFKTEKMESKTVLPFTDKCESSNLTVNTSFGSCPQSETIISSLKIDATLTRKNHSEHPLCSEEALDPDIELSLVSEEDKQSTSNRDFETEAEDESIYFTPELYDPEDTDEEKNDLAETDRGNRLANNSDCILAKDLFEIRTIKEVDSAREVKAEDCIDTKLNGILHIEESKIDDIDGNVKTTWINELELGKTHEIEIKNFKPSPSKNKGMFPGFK
B4: Cyclin-dependent kinase 4 inhibitor C (Homo sapiens), P42773 (parent)
chain: MAEPWGNELASAAARGDLEQLTSLLQNNVNVNAQNGFGRTALQVMKLGNPEIARRLLLRGANPDLKDRTGFAVIHDAARAGFLDTLQTLLEFQADVNIEDNEGNLPLHLAAKEGHLRVVEFLVKHTASNVGHRNHKGDTACDLARLYGRNEVVSLMQANGAGGATNLQ
B5: DNA mismatch repair protein Mlh1 (Homo sapiens), P40692 (parent)
chain: B3 chain

Variants of: B1
Conditions: with myd88_human MYD88, Q99836

effect of a mutation on the interaction	Variant
disrupting interaction strength	MNKPITPSTYVRCLNVGLIRKLSDFIDPQEGWKKLAVAIKKPSGDDRYNQFHIRRFEALLQTGKSPTSELLFDWGTTNCTVGDLVDLLIQNEFFAPASLLLPDAVPKTANTLPSKEAITVQQKQMPFCDKDRTLMTPVQNLEQSYMPPDSSSPENKSLEVSDTRFHSFSFYELKNVTNNFDERPISVGGNKMGEGGFGVVYKGYVNNTTVAVKKLAAMVDITTEELKQQFDQEIKVMAKCQHENLVELLGFSSDGDDLCLVYVYMPNGSLLDRLSCLDGTPPLSWHMRCKIAQGAANDINFLHENHHIHRDIKSANILLDEAFTAKISDFGLARASEKFAQTVMTSRIVGTTAYMAPEALRGEITPKSDIYSFGVVLLEIITGLPAVDEHREPQLLLDIKEEIEDEEKTIEDYIDKKMNDADSTSVEAMYSVASQCLHEKKNKRPDIKKVQQLLQEMTAS [G298D]

Variants of: B2
Conditions: with parva_human PARVA

effect of a mutation on the interaction	Variant
with no effect	MDDIFTQCREGNAVAVRLWLDNTENDLNQGDDHGFSPLHWACREGRSAVVEMLIMRGARINVMNRGDDTPLHLAASHGHRDIVQKLLQYKADINAVNEHGNVPLHYACFWGQDQVAEDLVANGALVSICNKYGEMPVDKAKAPLRELLRERAEKMGQNLNRIPYKDTFWKGTTRTRPRNGTLNKHSGIDFKQLNFLTKLNENHSGELWKGRWQGNDIVVKVLKVRDWSTRKSRDFNEECPRLRIFSHPNVLPVLGACQSPPVPHPTLITHWMPYGSLYNVLHEGTNFVVDQSQAVKFALDMARGMAFLHTLEPLIPRHALNSRSVMIDEDMTARISMADVKFSFQCPGRMYAPAWVAPEALQKKPEDTNRRSADMWSFAVLLWELVTREVPFADLSNMEIGMKVALEGLRPTIPPGISPHVCKLMKICMNEDPAKRPKFDMIVPILEKMQDK [A262V]

Variants of: B3
Conditions: with fancj_human BRIP1, Q9BX63

effect of a mutation on the interaction	Variant
with no effect	I107R

Variants of: B4
Conditions: with cdk6_human CDK6, Q00534

effect of a mutation on the interaction	Variant
with no effect	MAEPWGNELASAAARGDLEQLTSLLQNNVNLNAQNGFGRTALQVMKLGNPEIARRLLLRGANPDLKDRTGFAVIHDAARAGFLDTLQTLLEFQADVNIEDNEGNLPLHLAAKEGHLRVVEFLVKHTASNVGHRNHKGDTACDLARLYGRNEVVSLMQANGAGGATNLQ [V31L]

Variants of: B5
Conditions: with hsp7c_human HSPA8, P11142

effect of a mutation on the interaction	Variant
increasing interaction strength	I107R
